Experimental data reported in publication PMC10247153.

Columns and labels:
Test in all cases: EMSA
[1] = biological target: H3K4me3 147 bp mononucleosome, P68431; details: chain shown with the change;; parent: 6.9 ± 0.8
[2] = biological target: H3K4me3 187 bp mononucleosome, P68431; details: chain shown with the change;; parent: 7.3 µM
[3] = biological target: unmodified 147 bp mononucleosome, P68431; details: chain shown with the change;; parent: ≥ 12.5 ± 1.2

Kd [1] [µM]	Kd [2] [µM]	Kd [3] [µM]	Binder
2.3	1.3	1.8	KDM5C^1–839, P41229-1 D87G (protein) MEPGSDDFLPPPECPVFEPSWAEFRDPLGYIAKIRPIAEKSGICKIRPPADWQPPFAVEVDNFRFTPRIQRLNELEAQTRVKLNYLGQIAKFWEIQGSSLKIPNVERRILDLYSLSKIVVEEGGYEAICKDRRWARVAQRLNYPPGKNIGSLLRSHYERIVYPYEMYQSGANLVQCNTRPFDNEEKDKEYKPHSIPLRQSVQPSKFNSYGRRAKRLQPDPEPTEEDIEKNPELKKLQIYGAGPKMMGLGLMAKDKTLRKKDKEGPECPPTVVVKEELGGDVKVESTSPKTFLESKEELSHSPEPCTKMTMRLRRNHSNAQFIESYVCRMCSRGDEDDKLLLCDGCDDNYHIFCLLPPLPEIPKGVWRCPKCVMAECKRPPEAFGFEQATREYTLQSFGEMADSFKADYFNMPVHMVPTELVEKEFWRLVNSIEEDVTVEYGADIHSKEFGSGFPVSDSKRHLTPEEEEYATSGWNLNVMPVLEQSVLCHINADISGMKVPWLYVGMVFSAFCWHIEDHWSYSINYLHWGEPKTWYGVPSLAAEHLEEVMKKLTPELFDSQPDLLHQLVTLMNPNTLMSHGVPVVRTNQCAGEFVITFPRAYHSGFNQGYNFAEAVNFCTADWLPAGRQCIEHYRRLRRYCVFSHEELICKMAACPEKLDLNLAAAVHKEMFIMVQEERRLRKALLEKGITEAEREAFELLPDDERQCIKCKTTCFLSALACYDCPDGLVCLSHINDLCKCSSSRQYLRYRYTLDELPAMLHKLKVRAESFDTWANKVRVALEVEDGRKRSLEELRALESEARERRFPNSELLQQLKNCLSEAEACVSRALGLVSGQEAG
3.7	1.8	3.1	KDM5C^1–839, P41229-1 A388P (protein) MEPGSDDFLPPPECPVFEPSWAEFRDPLGYIAKIRPIAEKSGICKIRPPADWQPPFAVEVDNFRFTPRIQRLNELEAQTRVKLNYLDQIAKFWEIQGSSLKIPNVERRILDLYSLSKIVVEEGGYEAICKDRRWARVAQRLNYPPGKNIGSLLRSHYERIVYPYEMYQSGANLVQCNTRPFDNEEKDKEYKPHSIPLRQSVQPSKFNSYGRRAKRLQPDPEPTEEDIEKNPELKKLQIYGAGPKMMGLGLMAKDKTLRKKDKEGPECPPTVVVKEELGGDVKVESTSPKTFLESKEELSHSPEPCTKMTMRLRRNHSNAQFIESYVCRMCSRGDEDDKLLLCDGCDDNYHIFCLLPPLPEIPKGVWRCPKCVMAECKRPPEAFGFEQPTREYTLQSFGEMADSFKADYFNMPVHMVPTELVEKEFWRLVNSIEEDVTVEYGADIHSKEFGSGFPVSDSKRHLTPEEEEYATSGWNLNVMPVLEQSVLCHINADISGMKVPWLYVGMVFSAFCWHIEDHWSYSINYLHWGEPKTWYGVPSLAAEHLEEVMKKLTPELFDSQPDLLHQLVTLMNPNTLMSHGVPVVRTNQCAGEFVITFPRAYHSGFNQGYNFAEAVNFCTADWLPAGRQCIEHYRRLRRYCVFSHEELICKMAACPEKLDLNLAAAVHKEMFIMVQEERRLRKALLEKGITEAEREAFELLPDDERQCIKCKTTCFLSALACYDCPDGLVCLSHINDLCKCSSSRQYLRYRYTLDELPAMLHKLKVRAESFDTWANKVRVALEVEDGRKRSLEELRALESEARERRFPNSELLQQLKNCLSEAEACVSRALGLVSGQEAG
